Measurements published in patent US20220412960A1.

Biological target: PAR-1 receptor on human platelets (human) (UniProt P25116)
Experiment: cell-based or functional assay

PAR-1 receptor on human platelets (human), sequence (P25116 42-425): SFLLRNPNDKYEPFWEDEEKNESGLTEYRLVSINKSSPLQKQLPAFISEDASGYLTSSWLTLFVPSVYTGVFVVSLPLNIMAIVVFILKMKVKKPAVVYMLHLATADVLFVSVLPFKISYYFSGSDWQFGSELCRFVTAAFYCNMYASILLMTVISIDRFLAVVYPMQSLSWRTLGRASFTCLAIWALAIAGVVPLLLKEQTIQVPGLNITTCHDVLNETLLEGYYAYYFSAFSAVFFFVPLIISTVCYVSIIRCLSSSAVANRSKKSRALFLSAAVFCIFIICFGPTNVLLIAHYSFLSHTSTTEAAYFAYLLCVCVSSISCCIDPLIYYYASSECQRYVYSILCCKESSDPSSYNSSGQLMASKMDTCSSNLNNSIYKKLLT

platelet aggregation, light transmission aggregometry, washed platelets of sepsis patients at ICU admission, 10 µM TRAP-6: > 21.2% | platelet aggregation, light transmission aggregometry, washed platelets of sepsis patients at ICU admission, 10 µM TRAP-6 (mean): 34.2%
Substance: thrombin receptor agonist peptide TRAP-6
